In publication PMC4497662, “Single Turnover Autophosphorylation Cycle of the PKA RIIβ Holoenzyme” (PLoS Biology, 2015):

Assays:
[1] = target: T1, PKA catalytic subunit (isoform α), mouse (mouse, UniProt P05132 2-351); assay: SPR; GST-RIIβ 102–416 wild type and S112A captured on an anti-GST antibody CM5 chip (80 RU), C-subunit 30–0.12 nM injected; buffer A with 1 mM ATP and 10 mM CaCl2; 30 μL/min, 25°C; conditions: both partners purified
[2] = target: T1, PKA catalytic subunit (isoform α), mouse; assay: SPR; GST-RIIβ 102–416 (nonphospho or phospho) captured on an anti-GST antibody CM5 chip (80–120 RU), C-subunit 0.3–200 nM injected; buffer A with 1 mM ADP and 10 mM MgCl2; global fit, 1:1 Langmuir; conditions: both partners purified
[3] = target: T1, PKA catalytic subunit (isoform α), mouse; assay: SPR; GST-RIIβ 102–416 (nonphospho or phospho) captured on an anti-GST antibody CM5 chip (80–120 RU), C-subunit 0.3–200 nM injected; buffer A only (chelators EDTA/EGTA, no nucleotide or metal); global fit, 1:1 Langmuir; conditions: both partners purified
[4] = target: T1, PKA catalytic subunit (isoform α), mouse; assay: SPR; GST-RIIβ 102–416 (nonphospho, phospho or S112A) captured on an anti-GST antibody CM5 chip (80–120 RU), C-subunit injected; buffer A (20 mM MOPS, 150 mM NaCl, 100 μM EDTA, 100 μM EGTA, 0.01% P20) with 1 mM ATP and 10 mM MgCl2; global fit, 1:1 Langmuir; 25°C stated for the series of Fig 5; conditions: both partners purified
[5] = target: T1, PKA catalytic subunit (isoform α), mouse; assay: as above; conditions: both partners purified; remark: listed apart in the source
[6] = target: T1, PKA catalytic subunit (isoform α), mouse; assay: crystal structure; apo RIIβ(1–416, R230K)2:C2 holoenzyme crystals soaked overnight with 5 mM CaCl2 and 1 mM ATP; 2.8 Å; conditions: both partners purified
[7] = target: the molecule itself; assay: as above

Row | Binder | koff [1] [s⁻¹] | Kd [2] [nM] | koff [2] [s⁻¹] | kon [2] [M⁻¹ s⁻¹] | Kd [3] [nM] | koff [3] [s⁻¹] | kon [3] [M⁻¹ s⁻¹] | Kd [4] [nM] | koff [4] [s⁻¹] | kon [4] [M⁻¹ s⁻¹] | binding result [5] | binding result [6] | binding result [7]
1 | GST-RIIβ 102–416 (nonphosphorylated, wild type) (domain or fragment, rat, UniProt P12369 102-416, looked up, also called nonphospho form of RIIβ; source: E. coli BL21 (DE3), purified (cAMP resin, cGMP elution); cyclic nucleotide-free) PVINRFTRRASVCAEAYNPDEEEDDAESRIIHPKTDDQRNRLQEACKDILLFKNLDPEQMSQVLDAMFEKLVKEGEHVIDQGDDGDNFYVIDRGTFDIYVKCDGVGRCVGNYDNRGSFGELALMYNTPRAATITATSPGALWGLDRVTFRRIIVKNNAKKRKMYESFIESLPFLKSLEVSERLKVVDVIGTKVYNDGEQIIAQGDSADSFFIVESGEVRITMKRKGKSDIEENGAVEIARCLRGQYFGELALVTNKPRAASAHAIGTVKCLAMDVQAFERLLGPCMEIMKRNIATYEEQLVALFGTNMDIVEPTA | ~0.0001 | 0.24 | 0.00015 | 640000 | 0.39 | 0.00021 | 530000 | 0.14 | 0.0003 | 2.1e+06 |  |  | 
2 | phosphorylated GST-RIIβ 102–416 (pRIIβ) (domain or fragment, rat, UniProt P12369 102-416, looked up, phosphoserine at 112, source: E. coli BL21 (DE3), purified; phosphorylated in preformed holoenzyme with C-subunit and MgATP, C-subunit released on the chip with 500 nM cGMP) PVINRFTRRASVCAEAYNPDEEEDDAESRIIHPKTDDQRNRLQEACKDILLFKNLDPEQMSQVLDAMFEKLVKEGEHVIDQGDDGDNFYVIDRGTFDIYVKCDGVGRCVGNYDNRGSFGELALMYNTPRAATITATSPGALWGLDRVTFRRIIVKNNAKKRKMYESFIESLPFLKSLEVSERLKVVDVIGTKVYNDGEQIIAQGDSADSFFIVESGEVRITMKRKGKSDIEENGAVEIARCLRGQYFGELALVTNKPRAASAHAIGTVKCLAMDVQAFERLLGPCMEIMKRNIATYEEQLVALFGTNMDIVEPTA |  | 0.22 | 0.00012 | 550000 | 0.31 | 0.00011 | 340000 | 7 | 0.00026 | 38000 |  |  | 
3 | GST-RIIβ 102–416 S112A (domain or fragment, rat, UniProt P12369 102-416, looked up, also called RIIβ(S112A); source: E. coli BL21 (DE3), purified (cAMP resin, cGMP elution); cyclic nucleotide-free) PVINRFTRRAAVCAEAYNPDEEEDDAESRIIHPKTDDQRNRLQEACKDILLFKNLDPEQMSQVLDAMFEKLVKEGEHVIDQGDDGDNFYVIDRGTFDIYVKCDGVGRCVGNYDNRGSFGELALMYNTPRAATITATSPGALWGLDRVTFRRIIVKNNAKKRKMYESFIESLPFLKSLEVSERLKVVDVIGTKVYNDGEQIIAQGDSADSFFIVESGEVRITMKRKGKSDIEENGAVEIARCLRGQYFGELALVTNKPRAASAHAIGTVKCLAMDVQAFERLLGPCMEIMKRNIATYEEQLVALFGTNMDIVEPTA |  |  |  |  |  |  |  |  |  |  | binds |  | 
4 | RIIβ(1–416, R230K), phosphorylated at Ser112 in the crystal (natural protein, phosphoserine at 112 (after the soak with CaATP), Two copies stand with two C-subunits in the RIIβ2:C2 holoenzyme; also called pRIIβ; RIIβ(R230K); source: E. coli BL21 (DE3), purified (cAMP resin, cGMP elution); holoenzyme crystals soaked with 5 mM CaCl2 and 1 mM ATP) not shown |  |  |  |  |  |  |  |  |  |  |  | binds | binds
